Measured values published in patent US20090291899A1 (published 2009).
Where no end group is shown, it is not given here.

Biological target: T1, recombinant human soluble TNF receptor inhibitor/Fc chimera (rHusTNFRI) (human, UniProt P19438 30-211)
T1 construct: Bought from Prospec-Tany TechnoGene; Only the soluble part stood in the assay; also called TNF-R1; immobilised rHusTNFRI; not shown: Fc part of human IgG1; 6x histidine tag on the Fc part
T1 sequence: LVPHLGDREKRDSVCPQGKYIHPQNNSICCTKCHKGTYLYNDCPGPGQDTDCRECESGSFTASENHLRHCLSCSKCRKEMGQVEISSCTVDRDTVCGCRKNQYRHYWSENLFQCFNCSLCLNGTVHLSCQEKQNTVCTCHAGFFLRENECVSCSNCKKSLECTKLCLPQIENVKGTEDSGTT
Assay: solid-phase competition ELISA: unlabelled TNF70-80 against 10 µM biotinylated TNF70-80 on immobilised rHusTNFRI

B1: TNF70-80 (Pro-Ser-Thr-His-Val-Leu-Ile-Thr-His-Thr-Ile-OH) (peptide)
peptide: PSTHVLITHTI-OH
notes: 4; also called Peptide A; TNF mimetic peptide
- IC50: ~21 µM
- Kd: 90 µM
